Biological target: Met-hIL-21, Q9HBE4
Sequence (Q9HBE4 whole entry, looked up): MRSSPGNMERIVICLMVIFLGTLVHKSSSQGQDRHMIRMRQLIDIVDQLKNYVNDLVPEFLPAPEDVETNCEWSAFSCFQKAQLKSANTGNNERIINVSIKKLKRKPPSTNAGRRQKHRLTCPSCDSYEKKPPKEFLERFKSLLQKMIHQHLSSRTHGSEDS

Protein	Met-free hIL-21 generated (removal of initiator Met, enzyme activity)	cleavage of Met-hIL-21 in 44 h (enzyme activity)	removal of initiator Methionine, assayed by MALDI-TOF
hexa-His-Xa-Met-AP M206A, Q233A (protein) MAISIKTPEDIEKMRVAGRLAAEVLEMIEPYVKPGVSTGELDRICNDYIVNEQHAVSACLGYHGYPKSVCISINEVVCHGIPDDAKLLKDGDIVNIDVTVIKDGFHGDTSKMFIVGKPTIMGERLCRITQESLYLALRMVKPGINLREIGAAIQKFVEAEGFSVVREYCGHGIGRGFHEEPQVLHYDSRETNVVLKPGMTFTIEPAVNAGKKEIRTMKDGWTVKTKDRSLSAAYEHTIVVTDNGCEILTLRKDDTIPAIISHDE	˜65% Met-free hIL-21	In 44 h. more than 90% cleavage of Met-hIL-21 could be observed	removal of Methionine from Met-IL21 below detection limits of Met-IL21 could be performed
Met-AP (M206A) (protein) MAISIKTPEDIEKMRVAGRLAAEVLEMIEPYVKPGVSTGELDRICNDYIVNEQHAVSACLGYHGYPKSVCISINEVVCHGIPDDAKLLKDGDIVNIDVTVIKDGFHGDTSKMFIVGKPTIMGERLCRITQESLYLALRMVKPGINLREIGAAIQKFVEAEGFSVVREYCGHGIGRGFHEEPQVLHYDSRETNVVLKPGMTFTIEPAVNAGKKEIRTMKDGWTVKTKDRSLSAQYEHTIVVTDNGCEILTLRKDDTIPAIISHDE			removal of Methionine from Met-IL21 below detection limits of Met-IL21 could be performed

From US20100099142
